US20230035235A1 (published 2023)
One block for each binder: values may come before it.

Key:
[1] = target: T1, SMARCC1 (SWI/SNF related, matrix associated, actin dependent regulator of chromatin subfamily c member 1) (human, UniProt Q92922 1-1105); experiment: HA-GLTSCR1L purification from HEK-293T cells, silver stain and gradient MS
T1 construct: also called BAF155; HA-SMARCC1

SMARCA4 [2] = target: T2, SMARCA4 (human, UniProt P51532 1-1647, limits assumed); experiment: inter-protein BS3 crosslinks (CX-MS), HA-BRD7-purified PBAF complexes from HEK-293T
T2 construct: Endogenous PBAF subunit; numbering on the printed UniProt entry; also called BRG1; BAF190

[3] = target: T3, SMARCA4 (SWI/SNF related, matrix associated, actin dependent regulator of chromatin, subfamily a, member 4) (human, UniProt P51532 1-1647, limits assumed); experiment: inter-protein BS3 crosslink, CX-MS of HA-PHF10-purified PBAF complexes from HEK-293T cells
T3 construct: Endogenous subunit co-purified in native PBAF complex; The crosslink positions count on P51532; also called BRG1; BAF190

[4] = target: T4, H0Y3S9 (gene symbol printed cut off as 'ARID', 29.4 kDa) (human); experiment: HA affinity purification from HEK-293T nuclear extract, glycerol gradient fraction 15, mass spectrometry (co-purification in the complex)
T4 construct: Which ARID gene is meant cannot be told from the print

SS18 = target: T5, SS18 (human, UniProt Q15532 2-418, limits assumed); experiment: as above
T5 construct: also called Q15532_SSXT
T5 sequence (Q15532 2-418 limits assumed): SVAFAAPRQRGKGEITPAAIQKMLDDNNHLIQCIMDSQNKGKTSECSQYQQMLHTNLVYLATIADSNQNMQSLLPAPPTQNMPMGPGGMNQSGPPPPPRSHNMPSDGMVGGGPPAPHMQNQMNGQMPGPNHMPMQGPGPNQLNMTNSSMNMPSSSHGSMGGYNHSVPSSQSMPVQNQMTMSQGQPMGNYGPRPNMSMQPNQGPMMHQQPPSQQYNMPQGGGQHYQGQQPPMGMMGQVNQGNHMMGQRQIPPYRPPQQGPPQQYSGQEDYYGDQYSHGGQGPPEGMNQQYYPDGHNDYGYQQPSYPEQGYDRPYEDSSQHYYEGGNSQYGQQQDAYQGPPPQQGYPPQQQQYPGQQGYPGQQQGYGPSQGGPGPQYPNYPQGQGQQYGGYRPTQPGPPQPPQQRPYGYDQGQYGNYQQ

[5] = target: T6, DPF3, entry F8W7T1 (46.4 kDa) (human); experiment: as above
T6 construct: Separate database entry of DPF3; also called F8W7T1_F8W7
T6 sequence (Q92784 whole entry): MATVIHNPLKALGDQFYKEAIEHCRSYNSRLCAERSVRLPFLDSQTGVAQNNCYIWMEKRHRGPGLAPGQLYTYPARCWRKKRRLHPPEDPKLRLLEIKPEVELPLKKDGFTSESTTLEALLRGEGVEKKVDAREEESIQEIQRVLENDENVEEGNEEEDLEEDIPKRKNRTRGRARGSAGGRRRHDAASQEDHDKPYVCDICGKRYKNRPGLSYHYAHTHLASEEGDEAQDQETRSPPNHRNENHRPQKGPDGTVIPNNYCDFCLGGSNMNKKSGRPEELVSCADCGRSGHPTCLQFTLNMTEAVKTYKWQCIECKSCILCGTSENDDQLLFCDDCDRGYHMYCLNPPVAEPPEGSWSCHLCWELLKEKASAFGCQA

[6] = target: T7, PBRM1, entry C9J053 (13.6 kDa) (human); experiment: as above
T7 construct: Separate fragment entry; gene symbol cut off in print; also called C9J053_C9J053

SMARCC1 = target: T8, SMARCC1 (human, UniProt Q92922 2-1105); experiment: as above
T8 construct: also called BAF155; Q92922_SMRC1

[7] = target: T9, G5E975 (gene symbol printed cut off as 'SMA', 45.0 kDa) (human); experiment: as above
T9 construct: Separate database entry of the search; gene symbol cut off in print

SMARCE1 = target: T10, SMARCE1 (human, UniProt Q969G3 1-411); experiment: as above
T10 construct: also called BAF57; Q969G3_SMCE1

[8] = target: T11, DPF1, entry C8C3P2 (45.0 kDa) (human); experiment: as above
T11 construct: Separate database entry of DPF1; also called C8C3P2_C8C3
T11 sequence (Q92782 whole entry): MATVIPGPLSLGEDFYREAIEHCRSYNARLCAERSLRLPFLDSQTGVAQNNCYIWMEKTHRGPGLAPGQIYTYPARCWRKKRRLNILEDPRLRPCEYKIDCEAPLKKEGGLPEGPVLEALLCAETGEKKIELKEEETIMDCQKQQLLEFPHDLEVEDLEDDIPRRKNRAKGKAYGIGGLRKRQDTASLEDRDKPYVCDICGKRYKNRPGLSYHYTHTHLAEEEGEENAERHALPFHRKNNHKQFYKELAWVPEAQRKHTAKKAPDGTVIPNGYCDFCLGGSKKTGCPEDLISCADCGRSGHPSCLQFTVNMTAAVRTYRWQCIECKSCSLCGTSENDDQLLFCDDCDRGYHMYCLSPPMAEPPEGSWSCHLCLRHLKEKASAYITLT

[9] = target: T12, A0A0A0MT49 (gene symbol printed cut off as 'SMA', about 188 kDa) (human); experiment: as above
T12 construct: Separate database entry of the search; gene symbol cut off in print

ARID1B = target: T13, ARID1B (human, UniProt Q8NFD5 84-2319, limits assumed); experiment: as above
T13 construct: also called BAF250B; Q8NFD5_ARI1B

ARID1A = target: T14, ARID1A (human, UniProt O14497 2-2285); experiment: as above
T14 construct: also called BAF250A; O14497_ARI1A
T14 sequence (O14497 2-2285 limits assumed): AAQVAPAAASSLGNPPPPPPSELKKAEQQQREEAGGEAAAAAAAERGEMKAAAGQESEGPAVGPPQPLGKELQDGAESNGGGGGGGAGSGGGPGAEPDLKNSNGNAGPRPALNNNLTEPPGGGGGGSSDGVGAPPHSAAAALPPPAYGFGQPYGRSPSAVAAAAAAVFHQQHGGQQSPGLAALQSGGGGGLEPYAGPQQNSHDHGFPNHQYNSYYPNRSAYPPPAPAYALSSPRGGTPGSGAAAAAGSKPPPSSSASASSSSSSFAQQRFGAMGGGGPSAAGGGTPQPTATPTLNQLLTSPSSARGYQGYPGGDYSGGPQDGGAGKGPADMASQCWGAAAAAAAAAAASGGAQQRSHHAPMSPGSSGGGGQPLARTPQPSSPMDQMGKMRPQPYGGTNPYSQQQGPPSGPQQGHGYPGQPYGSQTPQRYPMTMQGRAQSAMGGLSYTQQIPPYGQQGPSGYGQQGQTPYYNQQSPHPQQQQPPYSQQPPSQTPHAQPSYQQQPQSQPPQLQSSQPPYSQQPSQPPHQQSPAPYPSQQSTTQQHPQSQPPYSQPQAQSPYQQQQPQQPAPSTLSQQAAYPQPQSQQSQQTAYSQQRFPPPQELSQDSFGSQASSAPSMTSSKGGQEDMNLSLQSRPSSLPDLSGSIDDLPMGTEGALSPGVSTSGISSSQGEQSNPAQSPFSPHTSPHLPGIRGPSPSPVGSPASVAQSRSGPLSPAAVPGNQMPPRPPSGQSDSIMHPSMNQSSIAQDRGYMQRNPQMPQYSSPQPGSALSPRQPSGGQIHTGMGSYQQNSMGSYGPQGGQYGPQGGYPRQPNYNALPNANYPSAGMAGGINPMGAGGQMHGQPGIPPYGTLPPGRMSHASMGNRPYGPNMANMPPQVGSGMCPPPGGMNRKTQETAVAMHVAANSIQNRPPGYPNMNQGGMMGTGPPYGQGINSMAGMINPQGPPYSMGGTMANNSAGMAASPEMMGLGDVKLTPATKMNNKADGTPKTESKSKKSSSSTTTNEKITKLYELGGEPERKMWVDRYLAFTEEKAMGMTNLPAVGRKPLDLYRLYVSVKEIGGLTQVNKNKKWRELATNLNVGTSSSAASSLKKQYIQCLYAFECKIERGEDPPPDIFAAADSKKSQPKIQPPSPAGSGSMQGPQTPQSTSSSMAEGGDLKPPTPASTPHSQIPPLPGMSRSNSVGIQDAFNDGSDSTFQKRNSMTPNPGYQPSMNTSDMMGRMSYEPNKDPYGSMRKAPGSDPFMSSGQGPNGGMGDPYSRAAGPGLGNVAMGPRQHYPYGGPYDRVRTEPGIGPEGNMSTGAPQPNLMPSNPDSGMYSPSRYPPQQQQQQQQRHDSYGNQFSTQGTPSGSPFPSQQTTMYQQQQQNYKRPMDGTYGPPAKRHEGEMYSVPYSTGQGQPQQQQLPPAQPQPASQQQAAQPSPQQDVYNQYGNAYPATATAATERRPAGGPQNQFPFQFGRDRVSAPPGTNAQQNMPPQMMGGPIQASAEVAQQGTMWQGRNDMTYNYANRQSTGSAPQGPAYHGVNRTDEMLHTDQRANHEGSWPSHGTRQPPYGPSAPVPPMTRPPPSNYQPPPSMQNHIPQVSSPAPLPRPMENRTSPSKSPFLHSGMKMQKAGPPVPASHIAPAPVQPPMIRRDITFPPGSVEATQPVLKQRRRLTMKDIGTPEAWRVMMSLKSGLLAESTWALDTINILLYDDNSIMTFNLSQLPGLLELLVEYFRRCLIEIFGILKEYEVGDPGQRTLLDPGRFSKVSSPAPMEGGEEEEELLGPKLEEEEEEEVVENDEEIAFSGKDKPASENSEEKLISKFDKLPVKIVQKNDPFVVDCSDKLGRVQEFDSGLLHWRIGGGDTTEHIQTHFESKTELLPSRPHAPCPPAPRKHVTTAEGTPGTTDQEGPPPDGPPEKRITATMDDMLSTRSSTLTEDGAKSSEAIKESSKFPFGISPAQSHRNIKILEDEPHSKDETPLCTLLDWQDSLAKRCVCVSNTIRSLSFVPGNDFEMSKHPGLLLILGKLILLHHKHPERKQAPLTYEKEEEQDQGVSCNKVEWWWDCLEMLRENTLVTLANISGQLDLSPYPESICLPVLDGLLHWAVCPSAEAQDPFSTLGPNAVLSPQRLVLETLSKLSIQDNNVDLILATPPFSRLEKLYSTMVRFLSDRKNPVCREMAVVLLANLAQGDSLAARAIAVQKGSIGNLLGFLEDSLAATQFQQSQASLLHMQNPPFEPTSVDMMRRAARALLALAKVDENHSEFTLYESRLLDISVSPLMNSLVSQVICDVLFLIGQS

SMARCA2 = target: T15, SMARCA2 (human, UniProt P51531 1-1590, limits assumed); experiment: as above
T15 construct: also called BRM; BAF190
T15 sequence (P51531 whole entry): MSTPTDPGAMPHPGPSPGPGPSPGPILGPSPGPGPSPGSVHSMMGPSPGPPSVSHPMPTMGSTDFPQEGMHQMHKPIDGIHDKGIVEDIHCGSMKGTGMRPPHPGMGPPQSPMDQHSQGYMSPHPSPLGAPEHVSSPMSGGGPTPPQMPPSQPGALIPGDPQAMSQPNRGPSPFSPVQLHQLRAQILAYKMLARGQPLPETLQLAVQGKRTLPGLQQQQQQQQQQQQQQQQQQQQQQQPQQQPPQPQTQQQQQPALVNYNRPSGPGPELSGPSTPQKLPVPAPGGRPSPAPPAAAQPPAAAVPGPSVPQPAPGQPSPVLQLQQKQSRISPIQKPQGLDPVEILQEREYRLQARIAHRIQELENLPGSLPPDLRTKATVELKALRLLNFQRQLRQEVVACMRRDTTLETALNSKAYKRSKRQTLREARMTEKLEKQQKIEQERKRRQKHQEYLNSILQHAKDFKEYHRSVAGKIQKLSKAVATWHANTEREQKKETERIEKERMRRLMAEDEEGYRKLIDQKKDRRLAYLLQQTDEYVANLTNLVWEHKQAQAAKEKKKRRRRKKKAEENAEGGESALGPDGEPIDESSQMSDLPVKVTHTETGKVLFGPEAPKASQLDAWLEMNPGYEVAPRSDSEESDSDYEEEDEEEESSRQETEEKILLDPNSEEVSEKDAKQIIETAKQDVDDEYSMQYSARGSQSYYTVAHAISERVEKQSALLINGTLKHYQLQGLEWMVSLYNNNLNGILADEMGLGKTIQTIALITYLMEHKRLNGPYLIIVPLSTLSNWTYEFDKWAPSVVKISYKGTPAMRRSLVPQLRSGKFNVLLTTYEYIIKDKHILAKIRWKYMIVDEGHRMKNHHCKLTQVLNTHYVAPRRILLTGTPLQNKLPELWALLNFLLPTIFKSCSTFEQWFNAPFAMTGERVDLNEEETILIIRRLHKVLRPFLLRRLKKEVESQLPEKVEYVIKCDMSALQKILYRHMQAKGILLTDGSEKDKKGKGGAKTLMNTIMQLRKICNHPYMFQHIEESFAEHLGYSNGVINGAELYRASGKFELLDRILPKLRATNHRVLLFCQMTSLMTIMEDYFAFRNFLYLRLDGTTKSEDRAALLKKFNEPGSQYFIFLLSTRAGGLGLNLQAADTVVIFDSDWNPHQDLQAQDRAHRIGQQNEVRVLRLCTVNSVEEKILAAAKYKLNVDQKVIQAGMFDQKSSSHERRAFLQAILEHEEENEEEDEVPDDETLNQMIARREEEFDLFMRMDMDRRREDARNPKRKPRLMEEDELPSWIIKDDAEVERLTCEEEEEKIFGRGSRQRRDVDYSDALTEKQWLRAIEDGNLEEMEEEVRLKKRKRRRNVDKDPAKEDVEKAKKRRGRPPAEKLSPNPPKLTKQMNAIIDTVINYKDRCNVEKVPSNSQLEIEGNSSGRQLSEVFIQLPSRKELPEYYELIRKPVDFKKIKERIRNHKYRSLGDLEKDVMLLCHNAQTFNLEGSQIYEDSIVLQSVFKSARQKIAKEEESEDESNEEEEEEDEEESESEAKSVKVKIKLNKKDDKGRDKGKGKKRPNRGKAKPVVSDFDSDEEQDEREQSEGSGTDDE

SMARCA4 [10] = target: T16, SMARCA4 (human, UniProt P51532 1-1647, limits assumed); experiment: as above
T16 construct: also called BRG1; BAF190

SMARCC2 = target: T17, SMARCC2 (human, UniProt Q8TAQ2 1-1214, limits assumed); experiment: as above
T17 construct: also called BAF170; Q8TAQ2_SMRC2

ARID2 = target: T18, ARID2 (human, UniProt Q68CP9 2-1835); experiment: as above
T18 construct: also called BAF200; Q68CP9_ARID2

binding result (SMARCA4 [2]): binds
B2: PHF10 (other, human, UniProt Q8WUB8 2-498, looked up)
chain: AAAAGPGAALSPRPCDSDPATPGAQSPKDDNEDNSNDGTQPSKRRRMGSGDSSRSCETSSQDLGFSYYPAENLIEYKWPPDETGEYYMLQEQVSEYLGVTSFKRKYPDLERRDLSHKEKLYLRELNVITETQCTLGLTALRSDEVIDLMIKEYPAKHAEYSVILQEKERQRITDHYKEYSQMQQQNTQKVEASKVPEYIKKAAKKAAEFNSNLNRERMEERRAYFDLQTHVIQVPQGKYKVLPTERTKVSSYPVALIPGQFQEYYKRYSPDELRYLPLNTALYEPPLDPELPALDSDGDSDDGEDGRGDEKRKNKGTSDSSSGNVSEGESPPDSQEDSFQGRQKSKDKAATPRKDGPKRSVLSKSVPGYKPKVIPNAICGICLKGKESNKKGKAESLIHCSQCENSGHPSCLDMTMELVSMIKTYPWQCMECKTCIICGQPHHEEEMMFCDMCDRGYHTFCVGLGAIPSGRWICDCCQRAPPTPRKVGRRGKNSKEG
notes: Endogenous PBAF subunit; numbering on the printed UniProt entry; also called BAF45A

binding result [3]: binds
B3: BRD7 (Bromodomain-containing protein 7) (other, human, UniProt Q9NPI1 1-651, looked up)
chain: MGKKHKKHKSDKHLYEEYVEKPLKLVLKVGGNEVTELSTGSSGHDSSLFEDKNDHDKHKDRKRKKRKKGEKQIPGEEKGRKRRRVKEDKKKRDRDRVENEAEKDLQCHAPVRLDLPPEKPLTSSLAKQEEVEQTPLQEALNQLMRQLQRKDPSAFFSFPVTDFIAPGYSMIIKHPMDFSTMKEKIKNNDYQSIEELKDNFKLMCTNAMIYNKPETIYYKAAKKLLHSGMKILSQERIQSLKQSIDFMADLQKTRKQKDGTDTSQSGEDGGCWQREREDSGDAEAHAFKSPSKENKKKDKDMLEDKFKSNNLEREQEQLDRIVKESGGKLTRRLVNSQCEFERRKPDGTTTLGLLHPVDPIVGEPGYCPVRLGMTTGRLQSGVNTLQGFKEDKRNKVTPVLYLNYGPYSSYAPHYDSTFANISKDDSDLIYSTYGEDSDLPSDFSIHEFLATCQDYPYVMADSLLDVLTKGGHSRTLQEMEMSLPEDEGHTRTLDTAKEMEITEVEPPGRLDSSTQDRLIALKAVTNFGVPVEVFDSEEAEIFQKKLDETTRLLRELQEAQNERLSTRPPPNMICLLGPSYREMHLAEQVTNNLKELAQQVTPGDIVSTYGVRKAMGISIPSPVMENNFVDLTEDTEEPKKTDVAECGPGGS
notes: Endogenous subunit co-purified in native PBAF complex; The crosslink positions count on Q9NPI1; also called Q9NPI1

Further lines, the binder ahead of its results:

B1: GLTSCR1L (BRD4 Interacting Chromatin Remodeling Complex Associated Protein Like) (other, human, UniProt Q6AI39 1-1079, looked up)
chain: MDDDDDSCLLDLIGDPQALNYFLHGPSNKSSNDDLTNAGYSAANSNSIFANSSNADPKSSLKGVSNQLGEGPSDGLPLSSSLQFLEDELESSPLPDLTEDQPFDILQKSLQEANITEQTLAEEAYLDASIGSSQQFAQAQLHPSSSASFTQASNVSNYSGQTLQPIGVTHVPVGASFASNTVGVQHGFMQHVGISVPSQHLSNSSQISGSGQIQLIGSFGNHPSMMTINNLDGSQIILKGSGQQAPSNVSGGLLVHRQTPNGNSLFGNSSSSPVAQPVTVPFNSTNFQTSLPVHNIIIQRGLAPNSNKVPINIQPKPIQMGQQNTYNVNNLGIQQHHVQQGISFASASSPQGSVVGPHMSVNIVNQQNTRKPVTSQAVSSTGGSIVIHSPMGQPHAPQSQFLIPTSLSVSSNSVHHVQTINGQLLQTQPSQLISGQVASEHVMLNRNSSNMLRTNQPYTGPMLNNQNTAVHLVSGQTFAASGSPVIANHASPQLVGGQMPLQQASPTVLHLSPGQSSVSQGRPGFATMPSVTSMSGPSRFPAVSSASTAHPSLGSAVQSGSSGSNFTGDQLTQPNRTPVPVSVSHRLPVSSSKSTSTFSNTPGTGTQQQFFCQAQKKCLNQTSPISAPKTTDGLRQAQIPGLLSTTLPGQDSGSKVISASLGTAQPQQEKVVGSSPGHPAVQVESHSGGQKRPAAKQLTKGAFILQQLQRDQAHTVTPDKSHFRSLSDAVQRLLSYHVCQGSMPTEEDLRKVDNEFETVATQLLKRTQAMLNKYRCLLLEDAMRINPSAEMVMIDRMFNQEERASLSRDKRLALVDPEGFQADFCCSFKLDKAAHETQFGRSDQHGSKASSSLQPPAKAQGRDRAKTGVTEPMNHDQFHLVPNHIVVSAEGNISKKTECLGRALKFDKVGLVQYQSTSEEKASRREPLKASQCSPGPEGHRKTSSRSDHGTESKLSSILADSHLEMTCNNSFQDKSLRNSPKNEVLHTDIMKGSGEPQPDLQLTKSLETTFKNILELKKAGRQPQSDPTVSGSVELDFPNFSPMASQENCLEKFIPDHSEGVVETDSILEAAVNSILEC
notes: also called BICRAL; HA-GLTSCR1L
binding result [1]: binds

B4: HA-SMARCD1 (other, human, UniProt Q96GM5 1-515, looked up)
chain: MAARAGFQSVAPSGGAGASGGAGAAAALGPGGTPGPPVRMGPAPGQGLYRSPMPGAAYPRPGMLPGSRMTPQGPSMGPPGYGGNPSVRPGLAQSGMDQSRKRPAPQQIQQVQQQAVQNRNHNAKKKKMADKILPQRIRELVPESQAYMDLLAFERKLDQTIMRKRLDIQEALKRPIKQKRKLRIFISNTFNPAKSDAEDGEGTVASWELRVEGRLLEDSALSKYDATKQKRKFSSFFKSLVIELDKDLYGPDNHLVEWHRTATTQETDGFQVKRPGDVNVRCTVLLMLDYQPPQFKLDPRLARLLGIHTQTRPVIIQALWQYIKTHKLQDPHEREFVICDKYLQQIFESQRMKFSEIPQRLHALLMPPEPIIINHVISVDPNDQKKTACYDIDVEVDDTLKTQMNSFLLSTASQQEIATLDNKIHETIETINQLKTQREFMLSFARDPQGFINDWLQSQCRDLKTMTDVVGNPEEERRAEFYFQPWAQEAVCRYFYSKVQQRRQELEQALGIRNT
notes: also called BAF60A; Q96GM5_SMRD1; not shown: HA tag
total peptides [4]: 1 peptides | unique peptides [4]: 1 peptides | total peptides (SS18): 3 peptides | unique peptides (SS18): 2 peptides | total peptides [5]: 2 peptides | unique peptides [5]: 1 peptides | total peptides [6]: 1 peptides | unique peptides [6]: 1 peptides | total peptides (SMARCC1): 403 peptides | unique peptides (SMARCC1): 88 peptides | total peptides [7]: 3 peptides | unique peptides [7]: 2 peptides | total peptides (SMARCE1): 114 peptides | unique peptides (SMARCE1): 33 peptides | total peptides [8]: 1 peptides | unique peptides [8]: 1 peptides | total peptides [9]: 8 peptides | unique peptides [9]: 2 peptides | total peptides (ARID1B): 189 peptides | unique peptides (ARID1B): 75 peptides | total peptides (ARID1A): 321 peptides | unique peptides (ARID1A): 100 peptides | total peptides (SMARCA2): 206 peptides | unique peptides (SMARCA2): 74 peptides | total peptides (SMARCA4 [10]): 153 peptides | unique peptides (SMARCA4 [10]): 53 peptides | total peptides (SMARCC2): 172 peptides | unique peptides (SMARCC2): 55 peptides | total peptides (ARID2): 55 peptides | unique peptides (ARID2): 41 peptides
